The results in this text go back to US20150152165.

Series [1] concerns SELP815K 6-mer.
Series [2] deals with SELP815K-MMPRS 6-mer.
Series [3] has as its target SELP47K.
The target of series [4] is SELP415K.
The target in series [5] is SELP815K 6-mer. The source holds these as a separate data set.

In the case of MMP-9, in series [1], the “SDS-PAGE analysis of enzymatic digestion” value is recorded as “SELP815K without the responsive sequence is not”; the “Young's modulus of hydrogel” value is listed as “there was no significant effect present in the standard SELP-815K polymer”; the “protein loss from hydrogel in the presence of MMPs” value is “SELP815K displayed statistically insignificant levels of increased protein loss in the presence of MMPs”; the “total release of 100 nm fluorescent nanoparticles from hydrogel at two weeks (no treatment 9.3%)” value is “MMP-2 and MMP-9 treatment conditions yielded release of 12.1% and 9.4%, respectively”. Moreover, in series [2], the “SDS-PAGE analysis of enzymatic digestion” value is “SELP815K-MMPRS is digested by MMP-2 and MMP-9”; the “higher protein loss from hydrogel compared to control (2 weeks, 10 nM MMP)” value is 63% and 44% higher protein loss compared to control; the “increase of nanoparticle release compared to control” value was “increases of 65% and 95% compared to control”; the “loss in Young's modulus of hydrogel” value is “MMP-9 affected a 24% loss”. For the same molecule, in series [2], the “percentage of total polymer per hydrogel lost (control about 24%)” value was “enzymatic digestion increasing this percentage to 39% and 35% for MMP-2 and MMP-9-induced degradation, respectively”; the “total release of 100 nm fluorescent nanoparticles from hydrogel at two weeks (no treatment 8.2%)” value was “treatment with MMP-2 and MMP-9 caused release of 13.5% and 16% respectively”.
On to MMP-2, for which, in series [1], the “SDS-PAGE analysis of enzymatic digestion” value was “SELP815K without the responsive sequence is not”; the “Young's modulus of hydrogel” value is recorded as “there was no significant effect present in the standard SELP-815K polymer”; the “protein loss from hydrogel in the presence of MMPs” value is “SELP815K displayed statistically insignificant levels of increased protein loss in the presence of MMPs”; the “total release of 100 nm fluorescent nanoparticles from hydrogel at two weeks (no treatment 9.3%)” value is “MMP-2 and MMP-9 treatment conditions yielded release of 12.1% and 9.4%, respectively”. In addition, in series [2], the “SDS-PAGE analysis of enzymatic digestion” value is “SELP815K-MMPRS is digested by MMP-2 and MMP-9”; the “higher protein loss from hydrogel compared to control (2 weeks, 10 nM MMP)” value was 63% and 44% higher protein loss compared to control; the “increase of nanoparticle release compared to control” value is “increases of 65% and 95% compared to control”; the “percentage of total polymer per hydrogel lost (control about 24%)” value was “enzymatic digestion increasing this percentage to 39% and 35% for MMP-2 and MMP-9-induced degradation, respectively”. For the same molecule, the “total release of 100 nm fluorescent nanoparticles from hydrogel at two weeks (no treatment 8.2%)” value in series [2] was “treatment with MMP-2 and MMP-9 caused release of 13.5% and 16% respectively”.

B1: Human Leukocyte Elastase (protein)
chain: IVGGRRARPHAWPFMVSLQLRGGHFCGATLIAPNFVMSAAHCVANVNVRAVRVVLGAHNLSRREPTRQVFAVQRIFENGYDPVNLLNDIVILQLNGSATINANVQVAQLPAQGRRLGNGVQCLAMGWGLLGRNRGIASVLQELNVTVVTSLCRRSNVCTLVRGRQAGVCFGDSGSPLVCNGLIHGIASFVRGGCASGLYPDAFAPVAQFVNWIDSIIQ
With B1, the “soluble fraction release from hydrogel (elastase degradation)” value is “SELP815K at 8 wt % is more resistant to degradation than SELP47K and SELP415K at 12 wt %” in series [3]; “SELP415K appears to be the most sensitive to elastase degradation” in series [4]; “SELP815K shows the lowest sensitivity to degradation” in series [5].
